Measured values: doi:10.1101/2022.11.09.515855
Where two headings read alike, the source gives them in different places.

How the values were obtained:
[1] = target: T1, Gac (C-terminal domain of GyrA, recombinant) (Borrelia burgdorferi B31) (UniProt O51396); assay: competition
T1 sequence: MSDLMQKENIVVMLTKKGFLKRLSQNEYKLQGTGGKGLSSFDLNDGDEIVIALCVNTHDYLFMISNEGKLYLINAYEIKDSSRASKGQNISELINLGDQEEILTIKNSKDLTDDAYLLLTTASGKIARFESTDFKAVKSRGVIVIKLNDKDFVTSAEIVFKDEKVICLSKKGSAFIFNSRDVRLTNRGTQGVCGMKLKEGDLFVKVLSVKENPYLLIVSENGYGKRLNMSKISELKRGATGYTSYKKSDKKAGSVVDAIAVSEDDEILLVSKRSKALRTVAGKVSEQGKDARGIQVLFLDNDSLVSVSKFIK

[2] = target: T1, Gac (C-terminal domain of GyrA, recombinant) (Borrelia burgdorferi B31); assay: competition; remark: listed apart in the source

Substance: empty pCR2.1 amplicon
- binding signal (fold change of shift) [1]: < 1.3

Substance: B31 ospC operator/promoter unlabeled
- binding signal (fold reduction of shift) [1]: 2.6

Substance: Ip89 ospC operator/promoter unlabeled
- binding signal (fold reduction of shift) [2]: > 8
- binding signal (fold reduction of shift) [1]: 2
